Tests used:
Q168a2 gp140 = Q168a2 gp140 (HIV-1 clade A, Q168a2, UniProt Q8JDN0, strain); test: BLI; antibody-capture: IgG (15 µg/mL in PBS) on anti-human IgG Fc capture biosensors; Env in solution at one concentration (1.2 µM in the legend, 1.02 µM in the methods) in 1x kinetics buffer (PBS, 0.01% BSA, 0.02% Tween 20, 0.005% NaN3); conditions: both partners purified
Q461e2 gp140 = Q461e2 gp140 (HIV-1 clade A, Q461e2, UniProt Q8JDJ9, strain); test: as above; conditions: both partners purified
426c gp140 [1] = molecular target: 426c gp140 (HIV-1 clade C, 426c, UniProt M4Q8P8, strain); test: as above; conditions: both partners purified
SF162 gp140 trimer = molecular target: T1, SF162 gp140 trimer (HIV-1 clade B, isolate SF162, UniProt P19550, strain); test: ELISA; conditions: both partners purified
T1 construct: also called trimeric SF162 gp140

QH0692 gp120 = molecular target: T2, QH0692 gp120 (HIV-1 clade B, isolate QH0692, UniProt Q5G5V7, strain); test: BLI; conditions: both partners purified
T2 construct: also called QH0692 Env; recombinant QH0692 Env; source: bought: Immune Technologies

426c gp140 [2] = molecular target: 426c gp140 (HIV-1 clade C, 426c, UniProt M4Q8P8, strain); test: BLI; antibody-capture: IgG (15 µg/mL in PBS) on anti-human IgG Fc capture biosensors; Env in solution at one concentration (1.2 µM in the legend, 1.02 µM in the methods) in 1x kinetics buffer (PBS, 0.01% BSA, 0.02% Tween 20, 0.005% NaN3); conditions: both partners purified; remark: listed apart in the source
SF162 gp120 [3] = molecular target: T3, SF162 gp120 (HIV-1 clade B, isolate SF162, UniProt P19550); test: cell-based or functional assay
QH0692 gp140 trimer = molecular target: T4, QH0692 gp140 trimer (HIV-1 clade B, isolate QH0692, UniProt Q5G5V7, strain); test: ELISA; conditions: both partners purified
T4 construct: also called trimeric QH0692 gp140

HXB2 gp120 = molecular target: T5, HXB2 gp120 (HIV-1 clade B, isolate HXB2, UniProt P04578); test: ELISA; conditions: both partners purified
T5 construct: also called HXBc2; HXB2 Env; source: bought: Immune Technologies

SF162 gp120 [4] = molecular target: T3, SF162 gp120; test: ELISA; conditions: both partners purified

| Binder | binding result (SF162 gp140 trimer) | binding result (QH0692 gp120) | binding result (HXB2 gp120) | binding result (SF162 gp120 [4]) | other results |
| --- | --- | --- | --- | --- | --- |
| germline IgG b12 (antibody, V domains shown, also called germline b12; soluble germline version of IgG b12) VH: QVQLVQSGAEVKKPGASVKVSCKASGYTFTSYAMHWVRQAPGQRLEWMGWINAGNGNTKYSQKFQGRVTITRDTSASTAYMELSSLRSEDTAVYYCARVGPYCGGDSPQDNYYMDVWGKGTTVTVSS VL: not shown | no binding (tested: 30 µg/mL) | – | – | – | binding result (Q168a2 gp140): no binding (tested: 1.2 µM); binding result (Q461e2 gp140): no binding (tested: 1.2 µM); binding result (426c gp140 [1]): no binding (tested: 1.2 µM) |
| NIH45-46 chimeric IgG, germline heavy chain with mature light chain (antibody, V domains shown) VH: not shown VL: EIVLTQSPATLSLSPGETAIISCRTSQSGSLAWYQQRPGQAPRLVIYSGSTRAAGIPDRFSGSRWGADYNLSISNLESGDFGVYYCQQYEFFGQGTKVQVD | – | no binding (tested: 100 nM; less than 0.2 nM shift) | – | – | – |
| 3BNC60 chimeric IgG, germline heavy chain with mature light chain (antibody, V domains shown, also called gHC/mLC (3BNC60)) VH: not shown VL: DIQMTQSPSSLSARVGDTVTITCQANGYLNWYQQRRGKAPKLLIYDGSKLERGVPARFSGRRWGQEYNLTINNLQPEDVATYFCQVYEFIVPGTRLDLK | – | no binding (tested: 100 nM; less than 0.2 nM shift) | – | – | – |
| mature IgG b12 (antibody, V domains shown, also called mature b12; mature b12 IgG) VH: QVQLVQSGAEVKKPGASVKVSCQASGYRFSNFVIHWVRQAPGQRFEWMGWINPYNGNKEFSAKFQDRVTFTADTSANTAYMELRSLRSADTAVYYCARVGPYSWDDSPQDNYYMDVWGKGTTVIVSS VL: EIVLTQSPGTLSLSPGERATFSCRSSHSIRSRRVAWYQHKPGQAPRLVIHGVSNRASGISDRFSGSGSGTDFTLTITRVEPEDFALYYCQVYGASSYTFGQGTKLERK | binds | – | – | – | binding result (426c gp140 [2]): binds; neutralisation of SF162 virions (luciferase reporter cells), IC50 (SF162 gp120 [3]): 0.01 µg/mL; binding result (QH0692 gp140 trimer): binds |
| b12 IgG, germline heavy chain with S31N/A52P/G53Y/G100W, paired with the mature light chain (antibody, V domains shown) VH: QVQLVQSGAEVKKPGASVKVSCKASGYTFTNYAMHWVRQAPGQRLEWMGWINPYNGNTKYSQKFQGRVTITRDTSASTAYMELSSLRSEDTAVYYCARVGPYCWGDSPQDNYYMDVWGKGTTVTVSS VL: EIVLTQSPGTLSLSPGERATFSCRSSHSIRSRRVAWYQHKPGQAPRLVIHGVSNRASGISDRFSGSGSGTDFTLTITRVEPEDFALYYCQVYGASSYTFGQGTKLERK | – | – | binds | no binding (tested: 30 µg/mL) | – |
| b12 IgG, germline heavy chain with G100W, paired with the mature light chain (antibody, V domains shown) VH: QVQLVQSGAEVKKPGASVKVSCKASGYTFTSYAMHWVRQAPGQRLEWMGWINAGNGNTKYSQKFQGRVTITRDTSASTAYMELSSLRSEDTAVYYCARVGPYCWGDSPQDNYYMDVWGKGTTVTVSS VL: EIVLTQSPGTLSLSPGERATFSCRSSHSIRSRRVAWYQHKPGQAPRLVIHGVSNRASGISDRFSGSGSGTDFTLTITRVEPEDFALYYCQVYGASSYTFGQGTKLERK | – | – | no binding (tested: 30 µg/mL) | no binding (tested: 30 µg/mL) | – |
